Measurements from article PMC7721913.

Molecular target: HA-SFPQ (human) (UniProt P23246)
Test: co-IP

HA-SFPQ (human), sequence (P23246 whole entry): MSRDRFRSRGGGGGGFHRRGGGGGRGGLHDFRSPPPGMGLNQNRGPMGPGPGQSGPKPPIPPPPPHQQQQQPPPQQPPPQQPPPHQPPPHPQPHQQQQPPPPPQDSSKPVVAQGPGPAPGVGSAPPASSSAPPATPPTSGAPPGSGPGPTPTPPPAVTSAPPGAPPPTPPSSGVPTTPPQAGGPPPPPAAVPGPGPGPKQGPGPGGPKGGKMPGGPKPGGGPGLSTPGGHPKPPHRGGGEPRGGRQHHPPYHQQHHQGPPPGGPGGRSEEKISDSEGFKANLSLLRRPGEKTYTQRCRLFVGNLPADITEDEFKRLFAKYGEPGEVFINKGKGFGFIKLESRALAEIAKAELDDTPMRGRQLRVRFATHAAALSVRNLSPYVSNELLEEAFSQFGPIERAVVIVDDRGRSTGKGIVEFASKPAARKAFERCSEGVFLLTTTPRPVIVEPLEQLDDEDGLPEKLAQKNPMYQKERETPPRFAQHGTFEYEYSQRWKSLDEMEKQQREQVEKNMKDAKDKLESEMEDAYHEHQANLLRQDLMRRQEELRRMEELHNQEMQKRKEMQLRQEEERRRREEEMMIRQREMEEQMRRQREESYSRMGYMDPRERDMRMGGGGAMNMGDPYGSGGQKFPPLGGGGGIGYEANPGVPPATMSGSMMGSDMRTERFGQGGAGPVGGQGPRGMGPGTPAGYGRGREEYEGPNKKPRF
Myc-KLC1 ΔTail (domain or fragment), sequence (O88447 whole entry, stated change not applied, the tested form may be a part): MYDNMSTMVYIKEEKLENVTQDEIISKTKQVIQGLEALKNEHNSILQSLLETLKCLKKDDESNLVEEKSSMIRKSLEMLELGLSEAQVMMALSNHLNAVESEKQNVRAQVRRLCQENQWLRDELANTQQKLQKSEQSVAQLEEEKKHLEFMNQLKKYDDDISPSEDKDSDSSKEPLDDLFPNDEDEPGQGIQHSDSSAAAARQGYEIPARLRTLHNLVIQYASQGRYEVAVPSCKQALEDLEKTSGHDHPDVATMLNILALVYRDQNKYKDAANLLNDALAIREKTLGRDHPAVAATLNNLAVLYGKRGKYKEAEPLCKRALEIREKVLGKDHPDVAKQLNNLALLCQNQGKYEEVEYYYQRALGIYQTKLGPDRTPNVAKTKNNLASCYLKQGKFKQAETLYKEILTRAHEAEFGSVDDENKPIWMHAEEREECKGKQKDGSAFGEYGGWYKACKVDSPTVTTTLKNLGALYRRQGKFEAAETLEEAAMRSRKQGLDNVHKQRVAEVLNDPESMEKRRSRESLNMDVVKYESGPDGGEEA

reduction of binding against WT KLC1: 50%
Substance: Myc-KLC1 ΔTail (domain or fragment)
